Reference: article doi:10.1101/2019.12.12.874594

T1: 15.5K (His-15.5K) (human, UniProt P55769 1-128)
T1 sequence: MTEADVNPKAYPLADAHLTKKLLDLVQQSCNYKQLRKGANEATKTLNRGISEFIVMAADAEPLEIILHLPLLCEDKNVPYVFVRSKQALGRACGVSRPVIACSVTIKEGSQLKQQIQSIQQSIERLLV

B1: zebrafish U8-5 snoRNA, mature (structured_RNA)
RNA: GCAUCAGUGAGGUUUAUCCUUGCCUGUUGUCUUAGAAUUAAGACUUCAGCACAUGAUGAUUGGAUUCUAUGAAUACAUGAUUAUACUCUGUGUUCAUAUAGGGCUUGUCACCCAUUUAUGAAUCCUGUCUGAU
B2: zebrafish U8-4 snoRNA, mature (structured_RNA)
RNA: GUAUCAGUGAGGUUUAUCCUUACCUGUUGUCUUAGAAAUAAGACUGCAGUAUAUGAUGAUUGGAUUCUAUGAAUAUGUGACUAUGUUUGUACUGUAUUUGUACAUGACUUGCAACCUCUUUAUAAAUCCUAUCUGAU
B3: zebrafish U8-2 snoRNA, mature (structured_RNA)
RNA: ACAUCAGUGAGGUUUGUCCUACCUGUUUUAGAAAUAAGACUUCAGCACAUGAUGAUUGGAUUCUAUGAAUAUGUGAUUAUAUUCUGUAUUCGUAUAGGGUUCACAACUCUGGAUCCUAUGUGAU
B4: zebrafish U8-1 snoRNA, mature (structured_RNA)
RNA: GCAUCAGUGAGGUUUAUCCUUACCUGUUGUCUUAGAAAUAAGACUACAGCACAUGAUGAUUGGAUUCUAUGAAUGCGUGAUUAUAUUCUGUAUUCUUAAAGGGUUUGCAACACCUUUAUGAAUCCUGUCUGAU

Molecular target: T1, 15.5K (His-15.5K)
Test: EMSA

Row | Binder | binding result
1 | B1 | binds
2 | B2 | binds
3 | B3 | binds
4 | B4 | binds
